Test results as given in patent US20170183640A1 (WISCONSIN ALUMNI RESEARCH FOUNDATION, published 2017).

Experiments:
[1] = biological target: the molecule itself; experiment: ultracentrifugation, self-association (dimerization)
[2] = biological target: the molecule itself; experiment: DSG crosslinking, SDS-PAGE (FIG. 7), self-association
Description: (§1) The crosslinking covalently traps Ref in oligomeric states. […] Cys11 is responsible for dimerization of the P1 Ref protein.
In order to determine the role of Cys11, a φW39 R11C variant was constructed and purified. […] The truncation variants' monomeric state was verified by analytical size exclusion (FIG. 9).

[3] = biological target: the molecule itself; experiment: gel filtration (Superdex 200), self-association, Example 4
[4] = biological target: the molecule itself; experiment: DSG crosslinking, SDS-PAGE, self-association
Description: as §1
Upon amino acid sequence analysis of P1 WT and φW39 WT, we noticed that P1 Ref contains Cys11 while φW39 Ref contains Arg11.

Row | Protein | apparent molecular mass by gel filtration [3] | also measured
1 | P1 wild type Ref (bacteriophage P1 full length Ref protein) (enzyme, Full-length native protein purified from E. coli; The dimer is reported to be held by a Cys11 disulfide bond) MKTIEQKIEQCRKWQKAARERAIARQREKLADPVWRESQYQKMRDTLDRRIAKQKERPPASKTRKSAVKIKSRGLKGRTPTAEERRIANALGALPCIACYMHGVISNEVSLHHIAGRTAPGCHKKQLPLCRWHHQHAAPAEVREKYPWLVPVHADGVVGGKKEFTLLNKSEMELLADAYEMANIMH |  | binding result [1]: binds
2 | φW39 R11C Ref (enzyme, Plasmid pEAW933; Full-length variant) MKTIEQKLEQCREWQKAARERAIARQREKLADPAWRESQYQKMRDSIDRRIAKQKERPPASKTRKSAVKIKSRGLKGRTPTAEERTIANALGTLPCIACYMHGVISEEVSLHHISGRTAPGCHKKQLPLCRWHHQHAAPAEVREKYPWLVPVHADGVVGGKKEFTLLNKSEMELLADAYEMANIMH |  | binding result [2]: binds
3 | φW39 wild type Ref (φW39 phage full length Ref protein) (enzyme, Full-length native protein) MKTIEQKLEQRREWQKAARERAIARQREKLADPAWRESQYQKMRDSIDRRIAKQKERPPASKTRKSAVKIKSRGLKGRTPTAEERTIANALGTLPCIACYMHGVISEEVSLHHISGRTAPGCHKKQLPLCRWHHQHAAPAEVREKYPWLVPVHADGVVGGKKEFTLLNKSEMELLADAYEMANIMH | 35 kDa | 
4 | φW39 ΔN47 Ref (enzyme, Plasmid pEAW865; The construct starts with a Met codon from the NdeI site) DRRIAKQKERPPASKTRKSAVKIKSRGLKGRTPTAEERTIANALGTLPCIACYMHGVISEEVSLHHISGRTAPGCHKKQLPLCRWHHQHAAPAEVREKYPWLVPVHADGVVGGKKEFTLLNKSEMELLADAYEMANIMH | 27.6 kDa | 
5 | φW39 ΔN21 Ref (enzyme, Plasmid pEAW886; The construct starts with a Met codon from the NdeI site) AIARQREKLADPAWRESQYQKMRDSIDRRIAKQKERPPASKTRKSAVKIKSRGLKGRTPTAEERTIANALGTLPCIACYMHGVISEEVSLHHISGRTAPGCHKKQLPLCRWHHQHAAPAEVREKYPWLVPVHADGVVGGKKEFTLLNKSEMELLADAYEMANIMH | 33.6 kDa | 
6 | P1 ΔN76 Ref (enzyme, Purified as in Gruenig et al 2011; The range 77-186 is derived from the name ΔN76) GRTPTAEERRIANALGALPCIACYMHGVISNEVSLHHIAGRTAPGCHKKQLPLCRWHHQHAAPAEVREKYPWLVPVHADGVVGGKKEFTLLNKSEMELLADAYEMANIMH |  | binding result [4]: no binding
